{"source": "paper PMC8173049", "key": {"[1]": {"target": "HAdV-B35 capsid (replication-defective, E1-deleted vector particle with a YFP expression cassette) (human adenovirus B35)", "assay": "SPR; BIAcore 3000; HAdV particles amine-coupled to a CM5 chip (3,500-4,000 RU, diluted in acetate buffer pH 4); lactoferrin 6.25-200 nM injected at 30 µl/min, 180 s association, 600 s dissociation; HBS-EP buffer (10 mM HEPES, 150 mM NaCl, 3 mM EDTA, 0.005% polysorbate 20, pH 7.4); bivalent fitting model"}, "[2]": {"target": "HAdV-C5 capsid (replication-defective, E1-deleted vector particle with a GFP expression cassette) (human adenovirus C5) (UniProt P04133)", "assay": "SPR; BIAcore 3000; HAdV particles amine-coupled to a CM5 chip (3,500-4,000 RU, diluted in acetate buffer pH 4); lactoferrin 6.25-200 nM injected at 30 µl/min, 180 s association, 600 s dissociation; HBS-EP buffer (10 mM HEPES, 150 mM NaCl, 3 mM EDTA, 0.005% polysorbate 20, pH 7.4); bivalent fitting model"}}, "note": "pKd: −log10 of the molar value.", "data": [{"substance": "human lactoferrin (natural protein)", "values": [{"measurement": "pKd", "setting": "[1]", "value": 4.27}, {"measurement": "pKd", "setting": "[2]", "value": 6.10}]}]}
